In patent publication US20240417436A1 (BRIGHT PEAK THERAPEUTICS, published 2024):
Bridges are numbered along the chain shown (N, C = ends). Primed or numbered codes have the meaning given here. [ ]: non-standard residue; d: D form. Ygp = O-(8x polyethylene glycol-amino)-tyrosine; Yn3 = O-(9x polyethylene glycol-azido)-tyrosine; PEG16′ = 16x polyethylene glycol; hSer = N[C@@H](CCO)C(=O)O; Nle = CCCC[C@H](N)C(=O)O

T1: IL-2 receptor βγ complex on pan T cells (human, UniProt P14784 27-551; P31785 23-369)
T1 sequence (looked up) 1: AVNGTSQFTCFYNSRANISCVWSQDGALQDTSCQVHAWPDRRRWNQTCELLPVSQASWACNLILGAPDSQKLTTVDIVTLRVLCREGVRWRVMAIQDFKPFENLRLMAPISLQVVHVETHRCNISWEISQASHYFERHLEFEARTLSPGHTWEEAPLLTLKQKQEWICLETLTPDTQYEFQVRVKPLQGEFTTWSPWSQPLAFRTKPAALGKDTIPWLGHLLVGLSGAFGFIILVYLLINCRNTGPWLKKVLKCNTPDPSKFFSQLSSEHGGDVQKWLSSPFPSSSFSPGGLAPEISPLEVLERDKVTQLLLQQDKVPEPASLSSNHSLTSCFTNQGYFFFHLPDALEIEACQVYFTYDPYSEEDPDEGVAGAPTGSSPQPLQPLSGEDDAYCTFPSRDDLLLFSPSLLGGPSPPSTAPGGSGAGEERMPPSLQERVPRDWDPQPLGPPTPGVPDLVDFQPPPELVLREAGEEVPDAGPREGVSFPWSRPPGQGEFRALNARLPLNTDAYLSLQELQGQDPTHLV
T1 sequence (looked up) 2: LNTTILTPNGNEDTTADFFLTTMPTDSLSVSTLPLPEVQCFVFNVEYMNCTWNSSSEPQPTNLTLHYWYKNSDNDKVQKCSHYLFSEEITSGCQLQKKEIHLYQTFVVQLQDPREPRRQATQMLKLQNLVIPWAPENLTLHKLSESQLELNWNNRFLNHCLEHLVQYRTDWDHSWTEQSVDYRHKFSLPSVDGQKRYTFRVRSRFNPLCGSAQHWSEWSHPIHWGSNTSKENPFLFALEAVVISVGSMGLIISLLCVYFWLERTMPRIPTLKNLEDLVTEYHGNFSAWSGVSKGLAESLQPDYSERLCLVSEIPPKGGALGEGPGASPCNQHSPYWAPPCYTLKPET


biological target: T1, IL-2 receptor βγ complex on pan T cells; assay: cell-based or functional assay

| Binder | Average EC50, pSTAT5 assay in pan T cells, MMP2 cleaved molecule [nM] | Average EC50, pSTAT5 assay in pan T cells, intact molecule [nM] |
| --- | --- | --- |
| CMP-139, MMP2 cleaved (ligand, numbers in words are those of the source; ends and bridges not checked; also: cleavable peptide cut by MMP2, macrocycle opened, cut site not given here) [PEG16′]APTSSSTKKTQLQLEHLLLDLQ[Nle]ILNGIE(PEG16′)NYKNPKLTR[Nle]L[hSer][Yn3]KF[Ygp][Nle]PKKATELKHLQCLEEELKPLEEVL[hSer]LAQSKNFHLRPRDLISNINVIVLELKGSETTF[hSer]CEYADETATIVEFLNRWITFSQSIISTLT | 3.61 | – |
| CMP-151, MMP2 cleaved (ligand, disulfide 58-105; also: MMP2-cleaved cleavable peptide, macrocycle opened, cut site not given here, remnants on Lys23 and Ala1 N-terminus unspecified) APTSSSTKKTQLQLEHLLLDLQKILNGINNYKNPKLTR[Nle]L[hSer][Yn3]KF[Ygp][Nle]PKKATELKHLQCLEEELKPLEEVL[hSer]LAQSKNFHLRPRDLISNINVIVLELKGSETTF[hSer]CEYADETATIVEFLNRWITFSQSIISTLT | 1.81 | – |
| CMP-152 (ligand, linker N-38 via 1,5‑pentanedioic acid‑9x polyethylene glycol) PLGLAGAPTSSSTKKTQLQLEHLLLDLQ[Nle]ILNGINNYKNPKLTR[Nle]L[hSer][Yn3]KF[Ygp][Nle]PKKATELKHLQCLEEELKPLEEVL[hSer]LAQSKNFHLRPRDLISNINVIVLELKGSETTF[hSer]CEYADETATIVEFLNRWITFSQSIISTLT | – | 16.1 |
| CMP-152, MMP2 cleaved (ligand, also: macrocycle (glutaric acid-9x PEG linker between residue 1 and Lys38 side chain) opened by MMP2 cleavage within PLGLAG, cut site not given here) PLGLAGAPTSSSTKKTQLQLEHLLLDLQ[Nle]ILNGINNYKNPKLTR[Nle]L[hSer][Yn3]KF[Ygp][Nle]PKKATELKHLQCLEEELKPLEEVL[hSer]LAQSKNFHLRPRDLISNINVIVLELKGSETTF[hSer]CEYADETATIVEFLNRWITFSQSIISTLT | 2.95 | – |
| CMP-154 (ligand, linker N-35 via 9x polyethylene glycol) PLGLAGAPTSSSTKKTQLQLEHLLLDLQ[Nle]ILNGIENYKNPKLTR[Nle]L[hSer][Yn3]KF[Ygp][Nle]PKKATELKHLQCLEEELKPLEEVL[hSer]LAQSKNFHLRPRDLISNINVIVLELKGSETTF[hSer]CEYADETATIVEFLNRWITFSQSIISTLT | – | 24.7 |
| CMP-154, MMP2 cleaved (ligand, also: macrocycle (9x PEG linker between residue 1 and Glu35 side chain) opened by MMP2 cleavage within PLGLAG, cut site not given here) PLGLAGAPTSSSTKKTQLQLEHLLLDLQ[Nle]ILNGIENYKNPKLTR[Nle]L[hSer][Yn3]KF[Ygp][Nle]PKKATELKHLQCLEEELKPLEEVL[hSer]LAQSKNFHLRPRDLISNINVIVLELKGSETTF[hSer]CEYADETATIVEFLNRWITFSQSIISTLT | 4.2 | – |
| CMP-155, MMP2 cleaved (ligand, also: MMP2-cleaved cleavable peptide, macrocycle opened, cut site not given here, remnants on Glu29 and N-terminus unspecified) APTSSSTKKTQLQLEHLLLDLQ[Nle]ILNGIENYKNPKLTR[Nle]L[hSer][Yn3]KF[Ygp][Nle]PKKATELKHLQCLEEELKPLEEVL[hSer]LAQSKNFHLRPRDLISNINVIVLELKGSETTF[hSer]CEYADETATIVEFLNRWITFSQSIISTLT | 2.9 | – |
